This note sets out measurements from article PMC11870076, “Multiple carbamylation events are required for differential modulation of Cx26 hemichannels and gap junctions by CO2” (The Journal of Physiology, 2025).

This data set concerns the molecule itself. Kind of data set: cryo-EM structure; GgCx26 in 0.03% DDM, 90 mmHg PCO2 aCSF buffer gassed with 15% CO2 to pH ~7.4, 3.4 mg/ml; reconstructions with D6 and C6 symmetry.

B1: chicken connexin 26 (GgCx26) gap junction channel (natural protein)
chain: not shown
notes: DNA encoding GgCx26 lacking a stop codon was amplified from a GgCx26-mCherry construct, forward primer at the start ATG; in the model residues before Val9, 106-124 and after Leu215 are not built; Dodecameric gap junction channel (two docked hexamers); thrombin-cleavable C-terminal His6 tag removed with thrombin before SEC; also called chicken Cx26; Chicken (Gallus gallus) Cx26; source: Sf9 cells …
What is called stoichiometry N is the number of molecules, sites or subunits per partner or assembly. In the case of B1, the “stoichiometry N” value is 12 subunits.
